Key:
[1] = biological target: T1, human FcγR IIIA F159 CD16aF (v5772) (human, UniProt P08637 17-208, limits assumed); assay: SPR (Biacore T200), antibody captured on protein A, FcγR as analyte, single-cycle, steady-state fit;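 also: five FcγR concentrations per single cycle, 40 s association then 120 s dissociation, responses corrected against a reference flow cell and blank buffer injections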
T1 construct: In-house reagent

[2] = biological target: T2, human FcγR IIA H131 CD32aH (v5774) (human, UniProt P12318 34-217, limits assumed); assay: as above
T2 construct: In-house reagent
T2 sequence (looked up): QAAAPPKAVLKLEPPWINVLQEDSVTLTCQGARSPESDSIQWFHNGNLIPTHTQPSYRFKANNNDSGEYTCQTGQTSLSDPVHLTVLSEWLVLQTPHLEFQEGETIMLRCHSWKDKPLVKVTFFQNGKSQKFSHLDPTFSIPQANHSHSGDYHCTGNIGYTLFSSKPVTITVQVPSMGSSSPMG

[3] = biological target: T3, human FcγR IIB Y160 CD32bY (v5777) (human, UniProt P31994 43-217, limits assumed); assay: as above
T3 construct: In-house reagent
T3 sequence (looked up): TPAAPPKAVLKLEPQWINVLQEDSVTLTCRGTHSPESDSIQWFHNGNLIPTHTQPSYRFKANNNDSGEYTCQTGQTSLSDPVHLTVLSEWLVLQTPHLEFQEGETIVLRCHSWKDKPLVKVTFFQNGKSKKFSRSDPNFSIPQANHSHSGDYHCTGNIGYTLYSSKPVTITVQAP

[4] = biological target: T4, Biotinylated human FcRn (human, UniProt P55899 24-297; P61769 21-119, limits assumed, biotinylated (site not stated)); assay: SPR (Biacore T200), biotinylated FcRn on neutravidin, antibody as analyte, pH 5.9, steady-state fit
T4 construct: also called Biotinlated human FcRn; human neonatal fragment crystallizable receptor (FcRn)
T4 sequence (P55899 24-297 limits assumed, chain 1 of 2): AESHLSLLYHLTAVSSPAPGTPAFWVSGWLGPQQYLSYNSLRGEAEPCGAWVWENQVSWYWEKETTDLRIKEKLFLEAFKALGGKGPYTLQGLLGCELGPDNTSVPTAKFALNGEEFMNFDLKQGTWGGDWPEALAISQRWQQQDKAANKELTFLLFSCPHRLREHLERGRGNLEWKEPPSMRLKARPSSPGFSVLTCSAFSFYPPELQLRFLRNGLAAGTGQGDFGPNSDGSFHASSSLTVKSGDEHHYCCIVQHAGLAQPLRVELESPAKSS
T4 sequence (P61769 21-119 limits assumed, chain 2 of 2): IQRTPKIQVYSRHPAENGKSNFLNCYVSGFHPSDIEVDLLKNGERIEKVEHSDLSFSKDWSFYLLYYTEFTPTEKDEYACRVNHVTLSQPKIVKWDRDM

[5] = biological target: T5, human FcγR I CD64 (Sino Biological Inc. 10256-H08H) (human, UniProt P12314 16-288); assay: SPR (Biacore T200), antibody captured on protein A, FcγR as analyte, multicycle, 1:1 fit
T5 construct: Bought reagent
T5 sequence (P12314 16-288 limits assumed): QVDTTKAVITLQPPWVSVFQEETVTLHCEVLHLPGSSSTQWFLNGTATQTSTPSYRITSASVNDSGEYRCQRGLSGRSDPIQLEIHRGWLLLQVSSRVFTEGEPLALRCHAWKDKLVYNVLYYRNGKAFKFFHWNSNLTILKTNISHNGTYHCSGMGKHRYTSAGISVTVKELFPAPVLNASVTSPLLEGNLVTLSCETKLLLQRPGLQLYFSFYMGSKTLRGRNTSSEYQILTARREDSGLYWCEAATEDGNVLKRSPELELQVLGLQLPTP

[6] = biological target: T6, human NaPi2b (sodium-dependent phosphate transporter 2B) (human, UniProt O95436 1-690); assay: flow cytometry on IGROV-1 cells (endogenous NaPi2b), 24 h at 4 C
T6 construct: Endogenous NaPi2b on the human tumor cell lines IGROV-1, HCC-78, H441 and H1781; also called hNaPi2b; SLC34A2
T6 sequence: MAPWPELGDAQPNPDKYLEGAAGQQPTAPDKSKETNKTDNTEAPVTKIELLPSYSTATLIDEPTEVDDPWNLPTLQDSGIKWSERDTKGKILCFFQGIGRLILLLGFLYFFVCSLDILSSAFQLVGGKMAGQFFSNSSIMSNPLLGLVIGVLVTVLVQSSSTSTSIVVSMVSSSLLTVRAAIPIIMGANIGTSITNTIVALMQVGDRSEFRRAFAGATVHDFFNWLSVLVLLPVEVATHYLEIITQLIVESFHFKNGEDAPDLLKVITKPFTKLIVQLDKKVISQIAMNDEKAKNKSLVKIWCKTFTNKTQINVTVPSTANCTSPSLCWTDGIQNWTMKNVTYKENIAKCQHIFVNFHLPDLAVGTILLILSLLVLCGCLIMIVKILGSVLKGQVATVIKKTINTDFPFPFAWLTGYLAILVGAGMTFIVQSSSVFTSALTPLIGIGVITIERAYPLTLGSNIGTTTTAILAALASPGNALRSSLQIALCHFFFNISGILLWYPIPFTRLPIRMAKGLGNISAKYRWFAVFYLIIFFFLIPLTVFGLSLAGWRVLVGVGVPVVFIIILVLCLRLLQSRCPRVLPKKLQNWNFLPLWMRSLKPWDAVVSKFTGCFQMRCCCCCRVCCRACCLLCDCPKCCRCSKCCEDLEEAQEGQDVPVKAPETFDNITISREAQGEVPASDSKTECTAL

[7] = biological target: T6, human NaPi2b (sodium-dependent …); assay: cell-based or functional assay
[8] = biological target: T6, human NaPi2b (sodium-dependent …); assay: flow cytometry on H441 cells (endogenous NaPi2b), 24 h at 4 C
[9] = biological target: T6, human NaPi2b (sodium-dependent …); assay: flow cytometry on HCC-78 cells (endogenous NaPi2b), 24 h at 4 C
[10] = biological target: T6, human NaPi2b (sodium-dependent …); assay: cell-based or functional assay; remark: listed apart in the source
[11] = biological target: T7, human sodium-dependent phosphate transporter 2B (NaPi2b) (human, UniProt O95436 1-690); assay: flow cytometry on IGROV-1 cells (endogenous NaPi2b), 24 h at 4 C, anti-human IgG Fc AF647, APC-A GeoMean
T7 construct: UniProt ID is given as 095436 [sic]; also called hNaPi2b; Hu NaPi2b
T7 sequence: T6 sequence

[12] = biological target: T7, human sodium-dependent phosphate …; assay: flow cytometry on HCC-78 cells (endogenous NaPi2b), 24 h at 4 C, anti-human IgG Fc AF647, APC-A GeoMean
[13] = biological target: T7, human sodium-dependent phosphate …; assay: flow cytometry on H441 cells (endogenous NaPi2b), 24 h at 4 C, anti-human IgG Fc AF647, APC-A GeoMean

T1 sequence (P08637 17-208 limits assumed): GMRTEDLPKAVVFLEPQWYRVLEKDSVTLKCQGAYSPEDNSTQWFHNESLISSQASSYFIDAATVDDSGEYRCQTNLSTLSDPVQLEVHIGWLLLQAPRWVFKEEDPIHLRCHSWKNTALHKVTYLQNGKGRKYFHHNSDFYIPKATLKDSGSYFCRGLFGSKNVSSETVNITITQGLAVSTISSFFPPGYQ

B1: Lifastuzumab (v18993, wild-type Fc) (antibody, human IgG1, kappa)
heavy 1: GEVQLVESGGGLVQPGGSLRLSCAASGFSFSDFAMSWVRQAPGKGLEWVATIGRVAFHTYYPDSMKGRFTISRDNSKNTLYLQMNSLRAEDTAVYYCARHRGFDVGHFDFWGQGTLVTVSSASTKGPSVFPLAPSSKSTSGGTAALGCLVKDYFPEPVTVSWNSGALTSGVHTFPAVLQSSGLYSLSSVVTVPSSSLGTQTYICNVNHKPSNTKVDKKVEPKSCDKTHTCPPCPAPELLGGPSVFLFPPKPKDTLMISRTPEVTCVVVDVSHEDPEVKFNWYVDGVEVHNAKTKPREEQYNSTYRVVSVLTVLHQDWLNGKEYKCKVSNKALPAPIEKTISKAKGQPREPQVYVYPPSRDELTKNQVSLTCLVKGFYPSDIAVEWESNGQPENNYKTTPPVLDSDGSFALVSKLTVDKSRWQQGNVFSCSVMHEALHNHYTQKSLSLSPG
heavy 2: not shown
light: GDIQMTQSPSSLSASVGDRVTITCRSSETLVHSSGNTYLEWYQQKPGKAPKLLIYRVSNRFSGVPSRFSGSGSGTDFTLTISSLQPEDFATYYCFQGSFNPLTFGQGTKVEIKRTVAAPSVFIFPPSDEQLKSGTASVVCLLNNFYPREAKVQWKVDNALQSGNSQESVTEQDSKDSTYSLSSTLTLSKADYEKHKVYACEVTHQGLSSPVTKSFNRGEC
notes: Two different heavy chains (heterodimeric Fc)
Binding percentage [1]: 71.5%
Kd [1]: 2020 nM
Binding percentage [2]: 69.6%
Kd [2]: 746 nM
Binding percentage [3]: 88.6%
Kd [3]: 3740 nM
Binding percentage [4]: 25.1%
Kd [4]: 68.2 nM
Binding percentage [5]: 76.9%
Kd [5]: 0.0966 nM

B2: v38591-MC-GGFG-AM-Compound 139 DAR 4 (antibody, human IgG1, kappa)
heavy: not shown
light: DVQMTQSPSSLSASVGDRVTITCRASQDVYSYLNWYQQKPGKAVKLLIYYTSRLQSGVPSRFSGSGSGTDYTLTISSLQPEDFATYYCQQYNIFPWTFGQGTKLEIKRTVAAPSVFIFPPSDEQLKSGTASVVCLLNNFYPREAKVQWKVDNALQSGNSQESVTEQDSKDSTYSLSSTLTLSKADYEKHKVYACEVTHQGLSSPVTKSFNRGEC
modifications: drug-linker MC-GGFG-AM-Compound 139 on cysteines freed by TCEP reduction, DAR 4 over the whole antibody
Bmax (MFI) [6]: 10500 MFI
Kd [6]: 0.82 nM
EC50 (nM), in vitro cytotoxicity, H441 spheroids, 7 days [7]: 9.85 nM
EC50 (nM), in vitro cytotoxicity, H1781 spheroids, 7 days [7]: 0.95 nM
Bmax (MFI) [8]: 521 MFI
Kd [8]: 0.74 nM
Bmax (MFI) [9]: 7810 MFI
Kd [9]: 1.07 nM
Internalized Fluorescence Fold-Over Untreated, H441, 4 h, 2.5 nM [10]: 1.2 fold
Internalized Fluorescence Fold-Over Untreated, H441, 24 h, 2.5 nM [10]: 2 fold
Internalized Fluorescence Fold-Over Untreated, HCC-78, 4 h, 2.5 nM [10]: 5.6 fold
Internalized Fluorescence Fold-Over Untreated, HCC-78, 24 h, 2.5 nM [10]: 35.9 fold
Internalized Fluorescence Fold-Over Untreated, IGROV-1, 4 h, 2.5 nM [10]: 7.1 fold
Internalized Fluorescence Fold-Over Untreated, IGROV-1, 24 h, 2.5 nM [10]: 26.6 fold

B3: v40502 (LALADS) anti-NaPi2b antibody (antibody, human IgG1, kappa, L234A L235A)
heavy: not shown
light: B2 light
notes: v38591 with L234A, L235A and D265S (EU) in the Fc
EC50 (read off the curve) [11]: ~2 nM
EC50 (read off the curve) [12]: ~3 nM
EC50 (read off the curve) [13]: ~0.6 nM

B4: v40502 (LALADS)-MC-GGFG-AM-Compound 139 DAR 4 (antibody, human IgG1, kappa, L234A L235A)
heavy: not shown
light: B2 light
modifications: as above; MC-GGFG-AM-Compound 139 drug-linker on cysteines freed by TCEP reduction; sites not stated; DAR 4
notes: Antibody-drug conjugate of v40502
EC50 (read off the curve) [11]: ~2 nM
EC50 (read off the curve) [12]: ~3 nM
EC50 (read off the curve) [13]: ~0.6 nM

B5: v40502-MC-GGFG-AM-Compound 139 DAR 4 (antibody, human IgG1, kappa, L234A L235A)
heavy: not shown
light: B2 light
modifications: drug-linker MC-GGFG-AM-Compound 139 on cysteines freed by TCEP reduction, DAR 4 over the whole antibody
Bmax (MFI) [6]: 10700 MFI
Kd [6]: 0.82 nM
EC50 (nM), in vitro cytotoxicity, H441 spheroids, 7 days [7]: 7.57 nM
EC50 (nM), in vitro cytotoxicity, H1781 spheroids, 7 days [7]: 1.15 nM
Bmax (MFI) [8]: 518 MFI
Kd [8]: 0.81 nM
Bmax (MFI) [9]: 7770 MFI
Kd [9]: 1.12 nM
Internalized Fluorescence Fold-Over Untreated, H441, 4 h, 2.5 nM [10]: 1.2 fold
Internalized Fluorescence Fold-Over Untreated, H441, 24 h, 2.5 nM [10]: 1.9 fold
Internalized Fluorescence Fold-Over Untreated, HCC-78, 4 h, 2.5 nM [10]: 5.3 fold
Internalized Fluorescence Fold-Over Untreated, HCC-78, 24 h, 2.5 nM [10]: 36.5 fold
Internalized Fluorescence Fold-Over Untreated, IGROV-1, 4 h, 2.5 nM [10]: 6.8 fold
Internalized Fluorescence Fold-Over Untreated, IGROV-1, 24 h, 2.5 nM [10]: 25.4 fold

B6: Upifitamab (v40885, wild-type Fc) (antibody, human IgG1, kappa)
heavy 1: GQVQLVQSGAEVVKPGASVKMSCKASGYTFTGYNIHWVKQAPGQGLEWIGAIYPGNGDTSYKQKFRGRATLTADTSTSTVYMELSSLRSEDSAVYYCARGETARATFAYWGQGTLVTVSSASTKGPSVFPLAPSSKSTSGGTAALGCLVKDYFPEPVTVSWNSGALTSGVHTFPAVLQSSGLYSLSSVVTVPSSSLGTQTYICNVNHKPSNTKVDKKVEPKSCDKTHTCPPCPAPELLGGPSVFLFPPKPKDTLMISRTPEVTCVVVDVSHEDPEVKFNWYVDGVEVHNAKTKPREEQYNSTYRVVSVLTVLHQDWLNGKEYKCKVSNKALPAPIEKTISKAKGQPREPQVYVYPPSRDELTKNQVSLTCLVKGFYPSDIAVEWESNGQPENNYKTTPPVLDSDGSFALVSKLTVDKSRWQQGNVFSCSVMHEALHNHYTQKSLSLSPG
heavy 2: not shown
light: GDIQMTQSPSSLSASVGDRVTITCSASQDIGNFLNWYQQKPGKTVKVLIYYTSSLYSGVPSRFSGSGSGTDYTLTISSLQPEDFATYYCQQYSKLPLTFGQGTKLELKRTVAAPSVFIFPPSDEQLKSGTASVVCLLNNFYPREAKVQWKVDNALQSGNSQESVTEQDSKDSTYSLSSTLTLSKADYEKHKVYACEVTHQGLSSPVTKSFNRGEC
Binding percentage [1]: 98.7%
Kd [1]: 2380 nM
Binding percentage [2]: 92.1%
Kd [2]: 1010 nM
Binding percentage [3]: 121%
Kd [3]: 5780 nM
Binding percentage [4]: 20.3%
Kd [4]: 61.8 nM
Binding percentage [5]: 97.7%

From patent US20260232827A1 (Zymeworks, published 2026)
